Results reported in patent publication CN111647079A (UNIV BEIBU GULF, dated 2020).

What was measured:
[1] = target: T1, 2019-NCOV Nucleocapsid (原核表达N蛋白) (SARS-CoV-2, UniProt P0DTC9 1-419)
[2] = target: NCOV-SARI-N-his (真核表达N蛋白) (SARS-CoV-2, UniProt P0DTC9 1-419)
[3] = target: T1, 2019-NCOV Nucleocapsid (原核表达N蛋白); assay: BLI (Fortebio BLItz), […], global fit

B1: Fab 20抗体 (抗新型冠状病毒N蛋白的中和抗体) (Fab, V domains shown)
VH: VQLLEQSGAEVKKPGSSVKVSCKASGGTFSSYAISWVRQAPGQGLEWMGGTIPIFGTANYAQKFQGRVTITADESTSTAYMELSSLRSEDTAVYYCARGGWSSSAGGYYGMDVWGQGTTVTVSS
VL: not shown
notes: also called HFab20/LFab20
EC50 [1]: 3.98 µg/mL | EC50 [2]: 4.75 µg/mL | Kd [3]: 111 nM
